In patent publication US20240352121A1, “LAIR-1 AGONISTIC ANTIBODIES AND METHODS OF USE THEREOF” (NEXTCURE, INC., priority 2023, published 2024):

Assays:
[1] = test system: AML patient bone-marrow cells (LSCs); assay: Colony forming unit assay, AML patient bone-marrow; type: cell-based, human; conditions: titrated concentrations, dose-response; vs isotype or vehicle
Description: Cryopreserved AML bone-marrow cells or healthy donor CD34 cells were thawed and plated in 96 wells plates. Cells were engaged with the indicated concentrations of LAIR-1 mAb or isotype control for 30 min at room temperature. Subsequently, cells were diluted in IMDM with 2% FBS and mixed with semisolid methylcellulose-based medium (MethoCult H4435 Enriched, StemCell Technologies, Vancouver, Canada) which contains human cytokines (stem cell factor, IL-3, IL-6, EPO, G-CSF, GM-CSF). Then, between 1e4 and 2.5e5 LSCs, or, between 1e3 and 5e3 healthy donor CD34 cells per well were plated on 6-well SmartDishes (StemCell Technologies, Vancouver, Canada). The cell-loaded plates were incubated at 37° C. with 5% CO2 in air and ≥95% humidity. On day 14, colony formation was counted by STEMvision (StemCell Technologies, Vancouver, Canada), an automated and standardized colony counting instrument. The automated results were confirmed and edited manually by the STEMvision Colony Marker software.

human LAIR-1 = biological target: T1, human LAIR-1 (Homo sapiens, UniProt Q6GTX8, D63E/L98P/R92S/S123T); assay: Cell binding to human LAIR-1 cells by flow cytometry; conditions: UT-140 cells
T1 construct: expressed in transfected cells
T1 sequence (Q6GTX8 22-287 D63E/R92S/L98P/S123T): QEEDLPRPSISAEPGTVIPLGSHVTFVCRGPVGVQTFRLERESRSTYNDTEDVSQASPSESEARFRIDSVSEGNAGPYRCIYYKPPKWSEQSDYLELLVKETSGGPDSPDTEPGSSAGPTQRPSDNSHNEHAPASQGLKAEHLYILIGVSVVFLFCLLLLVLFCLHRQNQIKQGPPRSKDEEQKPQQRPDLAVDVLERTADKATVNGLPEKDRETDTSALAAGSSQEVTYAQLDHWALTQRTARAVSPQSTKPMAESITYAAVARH
Description: FIGS. 21A-21B display LAIR-1 binding properties including h11B3 LAIR-1 mAbs binding to cells expressing human LAIR-1 or cynomolgus LAIR-1 as measured by flow cytometry. The h11B3 LAIR-1 mAbs include a variable light chain of SEQ ID NO: 16 and a variable heavy chain of SEQ ID NO: 21, as shown for Anti-LAIR-1 Variant 6 in Table 1 herein. […] Cells were incubated for 30 min on ice with titrated concentrations of h11B3. AF647 conjugated secondary antibody was used at 1:2000 dilution. […] Cells were incubated for 30 min on ice with titrated concentrations of h11B3. AF647 conjugated secondary antibody was used at 1:2000 dilution.
For cell binding assays, 5e4 UT-140 cells or mouse LAIR-1-transfected 293T cells per well were plated in 200 μL PBS in a 96-well round bottom plate, centrifuged for 4 minutes at 500×g for a single wash, and blocked for 10 minutes on ice with flow cytometry buffer (PBS+2% FBS+0.1 mM EDTA) containing 1:50 dilution of TruStain™ Fc block (Biolegend, San Diego, CA). Cells were subsequently stained for 30 min on ice with titrated concentrations of soluble AF647-labeled LAIR-1 mAb or AF647-labeled isotype control. Cells were then washed 3 times as previously described and binding was measured by flow cytometry using an Attune NXT flow cytometer. […] GFP expression was measured by flow cytometry using an Attune NXT Flow Cytometer.

[2] = Pharmacokinetic study in balb/c mice; type: in vivo; conditions: 10 mg/kg intraperitoneal, blood serum
Description: Balb/c mice were intraperitoneally injected with 10 mg/kg h11B3. Mice were subsequently bled by cheek-vein puncture at the indicated time points. Blood serum was isolated by centrifugation at 2500 RCF in serum-collection tubes. Blood serum was tested for circulating h11B3 by Universal PK assay. Briefly, h11B3 in mouse serum was captured using a biotin-labeled anti-human IgG inside a nanoliter column of a Gyrolab CD. Alexa Fluor labeled anti-human IgG was used for detection. The quantitative dynamic range was (500-100,000) ng/ml (LLOQ-ULOQ). The standard curve and controls were prepared in pooled Balb/C serum (Biochemed). Standard curve, controls, and samples were diluted 1:10-fold (MRD) in buffer. Samples above the upper limit of quantitation (100,000 ng/mL) were brought within range by diluting them in Rexiip buffer. The laser-induced fluorescence detection technique detected the amount of analyte present in the sample. The standard curve signals were used to interpolate unknown sample concentrations. All samples were analyzed in duplicates and assigned an acceptance criteria (±20% CV and Bias). Gyrolab Evaluator software was used to perform 4PL with Y weighing non-linear regression to interpolate unknown sample concentrations.

[3] = test system: blood leukocytes from healthy (non-AML) donors; assay: Ex vivo depleting assay, healthy donor blood leukocytes; type: cell-based, human; conditions: even in the presence of collagen ECM
Description: Fresh whole blood was RBC-depleted using the EasySep™ RBC Depletion Reagent (StemCell, Vancouver, BC) following the manufacturer's protocol. Alternatively, frozen PBMCs were thawed in pre-warmed cRPMI media. Cell number was determined by VI-Cell XR cell counter. 2e5 cells per well were plated into 96-well plates lacking or containing 50 μg/mL pre-coated human Collagen I (StemCell, Vancouver, BC) in 200 μL of cRPMI containing 10 μg/mL of soluble LAIR-1 mAb or isotype control antibody (NP782 (NextCure, Beltsville, MD) or InVivoMAb recombinant human IgG1 Fc (BioXcell, Lebanon, NH)). Plates were centrifuged at 100×g for 2 minutes, then incubated for 20 hours at 37° C. in a TC incubator. At the end of incubation period, plates were centrifuged at 500×g for 4 min. Cells were resuspended and then transferred to a 96-well round-bottom plate for cell staining and flow cytometry as described above.

B1: LAIR-1 mAb: humanized agonist anti-LAIR-1 mAb, IgG1 backbone; h11B3 VL-2 (SEQ ID NO: 16), h11B3 VH-3 (SEQ ID NO: 27) (antibody, V domains shown)
VH: EVQLVESGGGLVQPGGSLKLSCAASGFTFNTNAMYWVRQAPGKGLEWVGRIRSKSSNYATYYAASVKGRFTISRDDSKNTLYLQMNSLKTEDTAVYYCVRGGSGFFAYWGQGTLVTVSS
VL: DIQMTQSPSSLSASLGDRVTITCKASEDIYIRLAWYQQKPGKAPRLLISTATSLETGVPSRFSGSGSGTDYTFTISSLQPEDIATYYCQQYWSTPYTFGGGTRLEIK
modifications: IgG1 constant regions; Synthetic: h11B3 VH-3; Synthetic: h11B3 VL-2
[1]
  CFU formation: significantly decreased
Human LAIR-1
  binding to human LAIR-1: specifically binds
[2]
  Tmax: 8 h
[3]
  depletion of blood leukocytes: did not deplete
